A short description of the series: label from the status in PepcDB records.
Turning to “LRETEARLQRLADNLPGMLYEFCLKPDGTMTFPYVSSGCLELIECSPQELQDDASLTFASTYPEDIIGLQEAIANSAKTLQNFEHEWRIITSSGQLKWVKGASRPERKPGGEITWYGYLLDVSEQQAALRERKQADQQ”, the protein production result is listed as “not failed”.

On to “LRGMLPGSKLCEKKIVLSPSANMAAELKSEGKLFMLKRLRLADLEPMAIETSLLPINRFPSLENRNFENESLYEILEEEYNIKMTKAQQKIEVRMPTPQESELLDINYTIPVFHFKQVTFDQNDTIFEVAHSVYRGDRYEIETEIYR”, for which the protein production result was “failed”.

Turning to “LRKQVEELFERKYAQAIKAKGPVTIPYPLFQSHVEDLYVEGLPEGIPFRRPSTYGIPRLERILLAKERIRFVIKKHELLNSTREDL”, the protein production result was “not failed”.

As to “LRRGHLKLQRDGQIIGHTPEEWEQIFREVWPEYEIEPNPLPGYAPFDIGMWLTVEAPAYAVWIDPEDGSEYWAG”, the protein production entry is “failed”. The entry for “LRSRRKPSSRIGRRPSTTQDRISTVGIELFTEQGFDATSVDEVAEASGIARRTLFRYFPSKNAIPWGDFDAHLAEMRAQLAAQPDDIPIVDGLTAALLQFNAFPASEEINHRKRMGLILRVPALQAYSVVMYEGWRNVIAEYVASRLGTSPTDHVPRTVGYLLLGVAMSAYEQWLDDDSLELNELLASGMQSLYDGLSSLGEPDTRT” is “not failed”; for “LSPQVRTAHIGDVPVLVRLMSEFYQEAGFALPHDAAIRAFKALLGKPDLGRIWLIAEGTESVGYIVLTLGFSMEYGGLRGFVDDFFVRPNARGKGLGAAALQTVKQGCCDLGVRALLVETGPEDHPARGVYSRAGFEESGRMLLGQALAPPIHEA” it is “not failed”; for “LSQAEQDKLDAAVFRQLLQHLDQHKEVQNIDLMILADFCRNCLCKWYAAEAEKQGLDLNIDDARERVYGMTYDEWKANHQPPATPEQLAAFEAKTKSK” it is “failed”. The entry for “LSRVGSAEWNLLTDEATWSGELYQILGRDPAAPPLTLDELPSFVHDEDRPRLTAMVTDCLIDAKPIDGEFRIVRPDGGVRTVHMMGEPVLDAHGSTASMWAVLRDVSE” is “not failed”.

As for “LTAIEARVIGCLIEKEVTTPDQYPLSLNALTNASNQKSNREPVMALSESDVLDAVDALIERRLVSDESAFNSRVSKYQHRFCNTEFGDLKLSEQEKGIICCMLLRGAQTPGEIRTRTNRLATFHDVKEVEAVLEHLASEEKGPLVVKLPREAGKRESRYMHLFCGEVDVSAMAAAVPAT”, the protein production result is given as “failed”.

With “LTESEERWRLALDAANLGFWDWNVLTAKVVWSENHERLFGLVSGSFDGTYETFLSCVHPEDRESVIQVIGVCLENKTDYYDEFRIVWPDKSIHWIAAKGRFFYNDQGQPVRMIGVCMDITKSKRTEEN”, the protein production result is “failed”. Next, “LTSSNALRGDAHSRLAAHRGLLERTSRTTRVAGILRDAIIDGTFRPGARLSEPDICAALDVSRNTVREAFQILIEDRLVAHELNRGVFVRVPTAEDITELYICRRVVECAGVNGFDPATGDLSRVAEALDLADERYAVEDWTGVGTADIHFHSALASLNNSNRIDELMRSVWNEARLVFHVMDDAHRFHGPYLTRNHEIYDALAAGNTEAAGQLLKTYLEDAEAQILGAYRPVSG”: “not failed”; “MAAADAEAVPARGEPQQDCCVKTELLGEETPMAADEGSAEKQAGEAHMAADGETNGSCENSDASSHANAAKHTQDSARVNPQDGTNTLTRIAENGVSERDSEAAKQNHVTADDFVQTSVIGSNGYILNKPALQAQPLRTTSTLASSLPGHAAKTLPGGAGKGRTPSAFPQTPAAPPATLGEGSADTEDRKLPAPGADVKVHRARKTMPKSVVGLHAASKDPREVREARDHKEPKEEINKNISDFGRQQLLPPFPSLHQSLPQNQCYMATTKSQTACLPFVLAAAVSRKKKRRMGTYSLVPKKKTKVLKQRTVIEMFKSITHSTVGSKGEKDLGASSLHVNGESLEMDSDEDDSEELEEDDGHGAEQAAAFPTEDSRTSKESMSEADRAQKMDGESEEEQESVDTGEEEEGGDESDLSSESSIKKKFLKRKGKTDSPWIKPARKRRRRSRKKPSGALGSESYKSSAGSAEQTAPGDSTGYMEVSLDSLDLRVKGILSSQAEGLANGPDVLETDGLQEVPLCSCRMETPKSREITTLANNQCMATESVDHELGRCTNSVVKYELMRPSNKAPLLVLCEDHRGRMVKHQCCPGCGYFCTAGNFMECQPESSISHRFHKDCASRVNNASYCPHCGEESSKAKEVTIAKADTTSTVTPVPGQEKGSALEGRADTTTGSAAGPPLSEDDKLQGAASHVPEGFDPTGPAGLGRPTPGLSQGPGKETLESALIALDSEKPKKLRFHPKQLYFSARQGELQKVLLMLVDGIDPNFKMEHQNKRSPLHAAAEAGHVDICHMLVQAGANIDTCSEDQRTPLMEAAENNHLEAVKYLIKAGALVDPKDAEGSTCLHLAAKKGHYEVVQYLLSNGQMDVNCQDDGGWTPMIWATEYKHVDLVKLLLSKGSDINIRDNEENICLHWAAFSGCVDIAEILLAAKCDLHAVNIHGDSPLHIAARENRYDCVVLFLSRDSDVTLKNKEGETPLQCASLNSQVWSALQMSKALQDSAPDRPSPVERIVSRDIARGYERIPIPCVNAVDSEPCPSNYKYVSQNCVTSPMNIDRNITHLQYCVCIDDCSSSNCMCGQLSMRCWYDKDGRLLPEFNMAEPPLIFECNHACSCWRNCRNRVVQNGLRARLQLYRTRDMGWGVRSLQDIPPGTFVCEYVGELISDSEADVREEDSYLFDLDNKDGEVYCIDARFYGNVSRFINHHCEPNLVPVRVFMAHQDLRFPRIAFFSTRLIEAGEQLGFDYGERFWDIKGKLFSCRCGSPKCRHSSAALAQRQASAAQEAQEDGLPDTSSAAAADPL”: “failed”; “MAAAFASLPTFSVVNSSRFPRRRIGFSCSKKPLEVRCSSGNTRYTKQRGAFTSLKECAISLALSVGLMVSVPSIALPPNAHAVANPVIPDVSVLISGPPIKDPEALLRYALPIDNKAIREVQKPLEDITDSLKIAGVKALDSVERNVRQASRTLQQGKSIIVAGFAESKKDHGNEMIEKLEAGMQDMLKIVEDRKRDAVAPKQKEILKYVGGIEEDMVDGFPYEVPEEYRNMPLLKGRASVDMKVKIKDNPNIEDCVFRIVLDGYNAPVTAGNFVDLVERHFYDGMEIQRSDGFVVQTGDPEGPAEGFIDPSTEKTRTVPLEIMVTGEKTPFYGSTLEELGLYKAQVVIPFNAFGTMAMAREEFENDSGSSQVFWLLKESELTPSNSNILDGRYAVFGYVTDNEDFLADLKVGDVIESIQVVSGLENLANPSYKIAG”: “failed”.

Turning to “MAAARDQLQMAADVARLGIWRWNLADDSLQWNERMCEMYGQPLALRDGGLVYEHWRSRLHPEDLERTEASLRAAVEGRGNYDVIFRVVLPDGGIRFIQAGAQVERDADGNPLQVTGINIDITSDQQLQARLREAKEQADAASAAKSSFLANMSHEIRTPMNAVLGML”, the protein production entry is “failed”. The entry for “MAADESYPSVKERAFFQGLPFDYAVVFDNALIDRLFSRLRQERALVEDGLLARPDHRPWRLGALITEADTLDRRLSEQIRCLSGQSLPVASIALVTATTEAREAVSLWASVTCPPNVVVTPDPRAWMAEADLDLVVVFAPGALAHPGLFAALGRALQRDGADFAVWNHLLVRRRAEAPGQDITYLRCPDPTRQPVALAHMEAAGPAWAATPRLFETIKGDLGKALIGMARHPLSIALLRGKPKVVRLNEFLGACRVDSLGTPPWPRQSALVEAYGAALEDETFRLEIDPAHPTQPIRLTPRRRAHSIDIVINFRDKPELTLAAMGSIYAQTTTARVSLFLIDNQSTPAARAAIDAEAARAPAGIAVRVLSYDRPFNHSAQTNLGAAAGNGEALVFMSNDCALVDPGALDEMAAWALAPGVGTVGVRLETAEGRLACSGICALYPDHDFHPIVAEGFDQLGAGLNRETFANTFACACLARAVFRQAGPLDAIGFPIGLNDVDYCLRLRERGLRHLYLGAFLARHQALGSRPASDDGAQSAFLRQTYGHLLFDKEYMLEYDFLRQFTAAKLRQDIRSQRDKTTTVLEHHHHHH” is “failed”; for “MAAEIHSRPQSSRPVLLSKIEGHQDAVTAALLIPKEDGVITASQDNGAVMEFHVSEDFNKMNFIKTYPAHQNRVSAIIFSLATEWVISTGHDKCVSWMCTRSGNMLGRHFFTSWASCLQYDFDTQYAFVGDYSGQITLLKLEQNTCSVITTLKGHEGSVACLWWDPIQRLLFSGASDNSIIMWDIGGRKGRTLLLQGHHDKVQSLCYLQLTRQLVSCSSDGGIAVWNMDVSREEAPQWLESDSCQKCEQPFFWNIKQMWDTKTLGLRQHHCRKCGQAVCGKCSSKRSSYPVMGFEFQVRVCDSCYDSIKDEDRTSLATFHEGKHNISHMSMDIARGLMVTCGTDRIVKIWDMTPVVGCSLATGFSPH” it is “failed”.

For the origin of these results see a protein production outcome set (Wang et al. 2014).
